Results reported in patent US11643448B2 (JAPAN SCIENCE AND TECHNOLOGY AGENCY, priority 2013, dated 2023).
Read-outs that look alike come from different tables or passages of the source.

Assays:
[1] = target: native Aβ (Homo sapiens, UniProt P05067); assay: Inhibition of aggregation of native Aβ by oxidized Aβ (atomic force microscope analysis); type: biochemical; settings: native Aβ 20 μM with oxidized Aβ 20 μM, 37° C., 6 hours, compared with native Aβ alone
Procedure: A part of the reaction mixture (10 μL) was added on mica, incubated at room temperature for 3 minutes, washed with 20 μL of water, and air dried. The measurement was carried out using Nano Wizard II (JPK instruments AG, Berlin, Germany) in a tapping mode in air at room temperature.

[2] = system: PC12 cells; settings: 10 µM
Procedure: PC12 cells, i.e., rat adrenal medulla-derived pheochromocytoma (purchased from RIKEN, Japan), were used. A phosphate buffer (pH 7.4) in which Aβ1-42 (20 μM) and riboflavin (4 μM) had been dissolved was incubated at room temperature under irradiation with a fluorescent lamp (24 W, natural white, a distance between a light source and a reaction mixture was about 3 cm). A part of the reaction mixture (50 μL) was added to a cell culture medium (50 μL) (final Aβ concentration was 10 μM), and the mixture was incubated at 37° C. for 48 hours under 5% CO2 atmosphere. Cells were observed and photographed using an inverted microscope DMI6000 B (Leica Microsystems GmbH, Wetzlar, Germany) equipped with a digital camera DFC360 FX (Leica Microsystems GmbH). A cell count reagent containing WST-8 (2-(2-methoxy-4-nitrophenyl)-3-(4-nitrophenyl)-5-(2,4-disulfonyl)-2H-tetrazolium, monosodium salt) (10 μL) was added to the mixture. The mixture was incubated at 37° C. for 6 hours under 5% CO2 atmosphere. Thereafter, absorbance at 450 nm (reference wavelength: 655 nm) was measured by iMark™ plate reader (Bio-Rad Laboratories, Inc., Hercules, Calif.).

[3] = target: T1, Aβ1-42 (Homo sapiens, UniProt P05067); assay: Thioflavin T fluorescence assay of aggregation; type: biochemical; settings: Aβ1-42 20 μM, 37° C., incubation time of 3 hours and 6 hours
T1 sequence (P05067 672-713): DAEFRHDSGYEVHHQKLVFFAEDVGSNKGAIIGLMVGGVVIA
Procedure: A part of the reaction mixture (10 μL) was added to a 50 mM glycine-NaOH buffer (pH 8.5, 400 μL) containing thioflavin T (5 μM), and the resultant mixture was immediately mixed to measure a fluorescence intensity of thioflavin T. In the fluorescence intensity measurement, an excitation wavelength was 440 nm, and a fluorescence wavelength was 470 nm.
A phosphate buffer having the same composition was reacted with no irradiation to provide a sample “native Aβ” as a control. Aggregation of each sample was evaluated by thioflavin T assay (it is known that fluorescence intensity of thioflavin T corresponds to the amount of an aggregate being rich in β sheet structure) (FIG. 11).

[4] = target: T1, Aβ1-42; assay: Atomic force microscope analysis of fibril formation; type: biochemical; settings: Aβ1-42 20 μM, 37° C.
Procedure: A phosphate buffer (10 mM, pH 7.4) in which Aβ1-42 (20 μM) and riboflavin (4 μM) had been dissolved was incubated at 37° C. under irradiation with a fluorescent lamp (24 W, natural white, a distance between a light source and a reaction mixture was about 3 cm). A part of the reaction mixture (10 μL) was added on mica, incubated at room temperature for 3 minutes, washed with 20 μL of water, and air dried. The measurement was carried out using Nano Wizard II (JPK instruments AG, Berlin, Germany) in a tapping mode in air at room temperature.

[5] = target: T1, Aβ1-42; assay: Circular dichroism spectroscopy analysis; type: biochemical; settings: Aβ1-42 20 μM, 37° C.
Procedure: A phosphate buffer (10 mM, pH7.4) in which Aβ1-42 (20 μM) and riboflavin (4 μM) had been dissolved was incubated at 37° C. under irradiation with a fluorescent lamp (24 W, natural white, a distance between a light source and a reaction mixture was about 3 cm). A part of the reaction mixture was analyzed using Model 202SF (AVIV Biomedical, Inc., Lakewood, N.J.).

[6] = system: PC12 cells; assay: Cell viability after photo-oxygenation reaction in the presence of cells (WST-8); type: cell-based, rat; settings: light irradiation, regardless of presence or absence of Aβ (f and h)
Procedure: In a plate well in which the PC12 cells had been seeded, a phosphate buffer (pH 7.4, 50 μL) containing 20 μM of Aβ and a catalyst (Catalyst 1 in 4 μM or Catalyst 2 in 20 μM) was irradiated with 500 nm LED (light emitting diode) at 37° C. for 15 minutes. After the reaction, 50 μL of a HEPES buffer solution containing a 0.1% horse serum-containing medium was added to thereto (final Aβ concentration: 10 μM).
In order to achieve Aβ selective oxidation, a peptide having a high affinity for Aβ, D-[Lys-Leu-Val-Phe(4-phenyl)-Phe] (SEQ ID NO: 3) was identified, and was bonded to flavin as an affinity tag of Aβ (Catalyst 2 in FIG. 17). Catalyst 2 or riboflavin itself (Catalyst 1 in FIG. 17) was added to a phosphate buffer containing Aβ, and the mixture was irradiated with light in the presence of cells. 500 nm LED was used as a light source, and light was irradiated at 37° C. for 15 minutes. […] After the oxidation reaction, the cells were further incubated for 2 days, and the cell viability was determined thereafter (bar graph in FIG. 17). […] It is conceivable that the cells were damaged due to non-specific oxidation. On the other hand, when Catalyst 2 was used in the absence of Aβ under the condition j, 50% or more of the cells survived after the light irradiation. […]

[7] = target: Aβ (Homo sapiens, UniProt P05067); assay: Oxidation of Aβ by catalyst under light irradiation; type: biochemical; settings: Catalyst 1 4 μM or Catalyst 2 20 μM, Aβ 20 μM, 500 nm LED, 37° C., 15 minutes
Chain of Aβ (P05067 672-713 limits assumed): as the sequence (P05067 672-713) above

Chain of native Aβ (P05067 672-713): as above

Row | Molecule | amyloid fibril content [1] | cell viability [2] | fluorescence intensity of thioflavin T [3] | fibril formation [4] | secondary structure by circular dichroism [5] | cell viability [6] | extent of Aβ oxidation [7]
1 | oxidized Aβ: Aβ1-42 oxidized with riboflavin under light; Tyr10, His13, His14 and Met35 oxidized, one to eight oxygen atoms added | significantly decreased | ≥ 50% | significantly lower than that of the native Aβ | hardly | random coil structure was maintained |  | 
2 | Cc1cc2nc3c(=O)[nH]c(=O)nc-3n(C[C@H](O)[C@H](O)[C@H](O)CO)c2cc1C [Catalyst 1, riboflavin] |  |  |  |  |  | almost all cells died | about 60%
